Experimental data as given in PMC11574045, “A cofactor-induced repressive type of transcription factor condensation can be induced by synthetic peptides to suppress tumorigenesis” (The EMBO Journal, 2024).

B1: SCAND1 (protein, UniProt P57086 1-179, looked up)
SCAN domain-containing …: MAATEPILAATGSPAAVPPEKLEGAGSSSAPERNCVGSSLPEASPPAPEPSSPNAAVPEAIPTPRAAASAALELPLGPAPVSVAPQAEAEARSTPGPAGSRLGPETFRQRFRQFRYQDAAGPREAFRQLRELSRQWLRPDIRTKEQIVEMLVQEQLLAILPEAARARRIRRRTDVRITG
B2: RYBP (protein, UniProt Q8N488 1-228, looked up)
RING1 and YY1-binding protein: MTMGDKKSPTRPKRQAKPAADEGFWDCSVCTFRNSAEAFKCSICDVRKGTSTRKPRINSQLVAQQVAQQYATPPPPKKEKKEKVEKQDKEKPEKDKEISPSVTKKNTNKKTKPKSDILKDPPSEANSIQSANATTKTSETNHTSRPRLKNVDRSTAQQLAVTVGNVTVIITDFKEKTRSSSTSSSTVTSSAGSEQQNQSSSGSESTDKGSSRSSTPKGDMSAVNDESF
B3: BBX (protein, UniProt Q8WY36 1-941, looked up)
HMG box transcription factor …: MKGSNRNKDHSAEGEGVGKRPKRKCLQWHPLLAKKLLDFSEEEEEEDEEEDIDKVQLLGADGLEQDVGETEDDESPEQRARRPMNAFLLFCKRHRSLVRQEHPRLDNRGATKILADWWAVLDPKEKQKYTDMAKEYKDAFMKANPGYKWCPTTNKPVKSPTPTVNPRKKLWAFPSDSSRDLPSPKKAKTEEMPQLNFGMADPTQMGGLSMLLLAGEHALGTPEVSSGTCRPDVSESPELRQKSPLFQFAEISSSTSHSDASTKQCQTSALFQFAEISSNTSQLGGAEPVKRCGKSALFQLAEMCLASEGMKMEESKLIKAKESDGGRIKELEKGKEEKEIKMEKTDETRLQKEAEFEKSAKENLRDSKELRNFEALQIDDIMAIKMEDPKEIRKEELEEDHKCSHFPDFSYSASSKIIISDVPSRKDHMCHPHGIMIIEDPAALNKPEKLKKKKKKSKMDRHGNDKSTPKKTCKKRQSSESDIESVIYTIEAVAKGDWGIEKLGDTPRKKVRTSSSGKGSILDAKPPKKKVKSREKKMSKEKSSDTTKESRPPDFISISASKNISGETPEGIKAEPLTPMEDALPPSLSGQAKPEDSDCHRKIETCGSRKSERSCKGALYKTLVSEGMLTSLRANVDRGKRSSGKGNSSDHEGCWNEESWTFSQSGTSGSKKFKKTKPKEDCLLGSAKLDEEFEKKFNSLPQYSPVTFDRKCVPVPRKKKKTGNVSSEPTKTSKGPFQSQKKNLFHKIVSKYKHKKEKPNVPEKGSGDKWSNKQLFLDAIHPTEAIFSEDRNTMEPVHKVKNIPSIFNTPEPTTTQEPLVGSQKRKARKTKITHLVRTADGRVSPAGGTLDDKPKEQLQRSLPKATETDCNDKCSHNTEVGETRSSTPEMPAVSAFFSLAALAEVAAMENVHRGQRSTPLTHDGQPKEMPQAPVLISCADQ
B4: SIRT2 (protein, UniProt Q8IXJ6 2-389, looked up)
NAD-dependent protein …: AEPDPSHPLETQAGKVQEAQDSDSDSEGGAAGGEADMDFLRNLFSQTLSLGSQKERLLDELTLEGVARYMQSERCRRVICLVGAGISTSAGIPDFRSPSTGLYDNLEKYHLPYPEAIFEISYFKKHPEPFFALAKELYPGQFKPTICHYFMRLLKDKGLLLRCYTQNIDTLERIAGLEQEDLVEAHGTFYTSHCVSASCRHEYPLSWMKEKIFSEVTPKCEDCQSLVKPDIVFFGESLPARFFSCMQSDFLKVDLLLVMGTSLQVQPFASLISKAPLSTPRLLINKEKAGQSDPFLGMIMGLGGGMDFDSKKAYRDVAWLGECDQGCLALAELLGWKKELEDLVRREHASIDAQSGAGVPNPSTSASPKKSPPPAKDEARTTEREKPQ
B5: SETD8 (protein, UniProt Q9NQR1 1-393, looked up)
N-lysine methyltransferase …: MGEGGAAAALVAAAAAAAAAAAAVVAGQRRRRLGRRARCHGPGRAAGGKMSKPCAVEAAAAAVAATAPGPEMVERRGPGRPRTDGENVFTGQSKIYSYMSPNKCSGMRFPLQEENSVTHHEVKCQGKPLAGIYRKREEKRNAGNAVRSAMKSEEQKIKDARKGPLVPFPNQKSEAAEPPKTPPSSCDSTNAAIAKQALKKPIKGKQAPRKKAQGKTQQNRKLTDFYPVRRSSRKSKAELQSEERKRIDELIESGKEEGMKIDLIDGKGRGVIATKQFSRGDFVVEYHGDLIEITDAKKREALYAQDPSTGCYMYYFQYLSKTYCVDATRETNRLGRLINHSKCGNCQTKLHDIDGVPHLILIASRDIAAGEELLYDYGDRSKASIEAHPWLKH
B6: SCRT1 (protein, UniProt Q99M85 1-348, looked up)
Transcriptional repressor …: MPRSFLVKKVKLDTFSSADLDSSYGRARSDLGVRLQDKGYLSDYVGPASVYDGDAEAALLKGPSPEPMYAAAVRGELGPAASGSAPPPTPRPELATAAGGYINGDAAVSEGYAADAFFITDGRSRRKAANANAAAAPSTASVAAPDSDAGGGGGPGTRGSGSGSASRGGTRVGAGTEARAGSGATGAGGRHACGECGKTYATSSNLSRHKQTHRSLDSQLARRCPTCGKVYVSMPAMAMHLLTHDLRHKCGVCGKAFSRPWLLQGHMRSHTGEKPFGCAHCGKAFADRSNLRAHMQTHSAFKHFQCKRCKKSFALKSYLNKHYESACFKGGASGPATPAPPQLSPVQA
B7: SALL1 (protein, UniProt Q9NSC2 1-1324, looked up)
Sal-like protein 1: MSRRKQAKPQHFQSDPEVASLPRRDGDTEKGQPSRPTKSKDAHVCGRCCAEFFELSDLLLHKKNCTKNQLVLIVNENPASPPETFSPSPPPDNPDEQMNDTVNKTDQVDCSDLSEHNGLDREESMEVEAPVANKSGSGTSSGSHSSTAPSSSSSSSSSSGGGGSSSTGTSAITTSLPQLGDLTTLGNFSVINSNVIIENLQSTKVAVAQFSQEARCGGASGGKLAVPALMEQLLALQQQQIHQLQLIEQIRHQILLLASQNADLPTSSSPSQGTLRTSANPLSTLSSHLSQQLAAAAGLAQSLASQSASISGVKQLPPIQLPQSSSGNTIIPSNSGSSPNMNILAAAVTTPSSEKVASSAGASHVSNPAVSSSSSPAFAISSLLSPASNPLLPQQASANSVFPSPLPNIGTTAEDLNSLSALAQQRKSKPPNVTAFEAKSTSDEAFFKHKCRFCAKVFGSDSALQIHLRSHTGERPFKCNICGNRFSTKGNLKVHFQRHKEKYPHIQMNPYPVPEHLDNIPTSTGIPYGMSIPPEKPVTSWLDTKPVLPTLTTSVGLPLPPTLPSLIPFIKTEEPAPIPISHSATSPPGSVKSDSGGPESATRNLGGLPEEAEGSTLPPSGGKSEESGMVTNSVPTASSSVLSSPAADCGPAGSATTFTNPLLPLMSEQFKAKFPFGGLLDSAQASETSKLQQLVENIDKKATDPNECIICHRVLSCQSALKMHYRTHTGERPFKCKICGRAFTTKGNLKTHYSVHRAMPPLRVQHSCPICQKKFTNAVVLQQHIRMHMGGQIPNTPVPDSYSESMESDTGSFDEKNFDDLDNFSDENMEDCPEGSIPDTPKSADASQDSLSSSPLPLEMSSIAALENQMKMINAGLAEQLQASLKSVENGSIEGDVLTNDSSSVGGDMESQSAGSPAISESTSSMQALSPSNSTQEFHKSPSIEEKPQRAVPSEFANGLSPTPVNGGALDLTSSHAEKIIKEDSLGILFPFRDRGKFKNTACDICGKTFACQSALDIHYRSHTKERPFICTVCNRGFSTKGNLKQHMLTHQMRDLPSQLFEPSSNLGPNQNSAVIPANSLSSLIKTEVNGFVHVSPQDSKDTPTSHVPSGPLSSSATSPVLLPALPRRTPKQHYCNTCGKTFSSSSALQIHERTHTGEKPFACTICGRAFTTKGNLKVHMGTHMWNSTPARRGRRLSVDGPMTFLGGNPVKFPEMFQKDLAARSGSGDPSSFWNQYAAALSNGLAMKANEISVIQNGGIPPIPGSLGSGNSSPVSGLTGNLERLQNSEPNAPLAGLEKMASSENGTNFRFTRFVEDSKEIVTS
B8: SIM1 (protein, UniProt P81133 1-766, looked up)
Single-minded homolog 1: MKEKSKNAARTRREKENSEFYELAKLLPLPSAITSQLDKASIIRLTTSYLKMRVVFPEGLGEAWGHSSRTSPLDNVGRELGSHLLQTLDGFIFVVAPDGKIMYISETASVHLGLSQVELTGNSIYEYIHPADHDEMTAVLTAHQPYHSHFVQEYEIERSFFLRMKCVLAKRNAGLTCGGYKVIHCSGYLKIRQYSLDMSPFDGCYQNVGLVAVGHSLPPSAVTEIKLHSNMFMFRASLDMKLIFLDSRVAELTGYEPQDLIEKTLYHHVHGCDTFHLRCAHHLLLVKGQVTTKYYRFLAKHGGWVWVQSYATIVHNSRSSRPHCIVSVNYVLTDTEYKGLQLSLDQISASKPAFSYTSSSTPTMTDNRKGAKSRLSSSKSKSRTSPYPQYSGFHTERSESDHDSQWGGSPLTDTASPQLLDPADRPGSQHDASCAYRQFSDRSSLCYGFALDHSRLVEERHFHTQACEGGRCEAGRYFLGTPQAGREPWWGSRAALPLTKASPESREAYENSMPHIASVHRIHGRGHWDEDSVVSSPDPGSASESGDRYRTEQYQSSPHEPSKIETLIRATQQMIKEEENRLQLRKAPSDQLASINGAGKKHSLCFANYQQPPPTGEVCHGSALANTSPCDHIQQREGKMLSPHENDYDNSPTALSRISSPNSDRISKSSLILAKDYLHSDISPHQTAGDHPTVSPNCFGSHRQYFDKHAYTLTGYALEHLYDSETIRNYSLGCNGSHFDVTSHLRMQPDPAQGHKGTSVIITNGS
B9: SETD7 (protein, UniProt Q8WTS6 1-366, looked up)
Histone-lysine …: MDSDDEMVEEAVEGHLDDDGLPHGFCTVTYSSTDRFEGNFVHGEKNGRGKFFFFDGSTLEGYYVDDALQGQGVYTYEDGGVLQGTYVDGELNGPAQEYDTDGRLIFKGQYKDNIRHGVCWIYYPDGGSLVGEVNEDGEMTGEKIAYVYPDERTALYGKFIDGEMIEGKLATLMSTEEGRPHFELMPGNSVYHFDKSTSSCISTNALLPDPYESERVYVAESLISSAGEGLFSKVAVGPNTVMSFYNGVRITHQEVDSRDWALNGNTLSLDEETVIDVPEPYNHVSKYCASLGHKANHSFTPNCIYDMFVHPRFGPIKCIRTLRAVEADEELTVAYGYDHSPPGKSGPEAPEWYQVELKAFQATQQK
B10: SCX (protein, UniProt Q7RTU7 1-201, looked up)
Basic helix-loop-helix …: MSFATLRPAPPGRYLYPEVSPLSEDEDRGSDSSGSDEKPCRVHAARCGLQGARRRAGGRRAGGGGPGGRPGREPRQRHTANARERDRTNSVNTAFTALRTLIPTEPADRKLSKIETLRLASSYISHLGNVLLAGEACGDGQPCHSGPAFFHAARAGSPPPPPPPPPARDGENTQPKQICTFCLSNQRKLSKDRDRKTAIRS

Test system: HEK293FT cells transfected with TF library
Experiment: Screening of TF condensates based on fluorescent puncta
Type: cell-based
Conditions: Figure 1B numerical data; TF library screen, one value per transcriptional factor
Summary of the method: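 HEK293FT cells were reverse-transfected with Flag- or GAL4-tagged TF plasmids (1.6 μg/ml, PEI). After 60 h, cells were cultured 12 h with or without glucose, then fixed and immunostained with anti-Flag or anti-GAL4 and Alexa 488 secondaries. Fluorescent puncta were imaged over fifty random fields per well by high-content imaging.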

| Molecule | Z score of condensed fraction |
| --- | --- |
| B1 | -0.8992 |
| B2 | -0.5834 |
| B3 | 1.56 |
| B4 | 0.4793 |
| B5 | -0.8816 |
| B6 | 0.5906 |
| B7 | -0.9814 |
| B8 | -1.099 |
| B9 | 0.4495 |
| B10 | -0.06618 |
